# According to patent publication US8735097B2, “Human antibiotic proteins” (Planton GmbH, priority 1999, dated 2014):
# Where no end group is shown, it is not given here.
# B1: SAP-2: human antibiotic protein of about 20 kDa isolated from lesional psoriasis scales, SEQ ID NO: 1, to be renamed RNase 7 (protein, listed as Homo sapiens)
# chain: KPKGMTSSQWFKIQHMQPSPQACNSAMKNINKHTKRCKDLNTFLHEPFSSVAATCQTPKIACKNGDKNCHQSHGPVSLTMCKLTSGKYPNCRYKEKRQNKSYVVACKPPQKKDSQQFHLVPVHLDRVL
# B2: TAP: first known epithelial β-defensin, which protects the trachea of bovines, 64 amino acids (protein, UniProt P25068 1-64, looked up)
# chain: MRLHHLLLALLFLVLSAWSGFTQGVGNPVSCVRNKGICVPIRCPGSMKQIGTCVGRAVKCCRKK
# modifications: ends and bridges not checked
# notes: first known epithelial β-defensin, which protects the trachea of bovines, 64 amino acids
# Assays:
# [1] = system: gram-negative bacteria; settings: cited from earlier work
# [2] = system: gram-positive bacteria; settings: cited from earlier work
# [3] = system: E. coli; assay: MIC, antimicrobial activity against E. coli; assay type: cell-based, Escherichia coli
# Description: (§1) The following microorganisms were used for the tests: • Escherichia coli (E. coli)—ATCC (American Type Culture Collection) No. 11303 • Pseudomonas aeruginosa—ATCC No. 15442 • Staphylococcus aureus (clinical isolates from the dermatological hospital of Kiel) • Staphylococcus epidermidis (clinical isolates from the dermatological hospital of Kiel) • Candida albicans (clinical isolates from the dermatological hospital of Kiel)
# (§2) The microorganisms were cultivated on Trypticase-soy-broth (TSB) agar plates at 37° C. If they were not needed for a long time, they were stored at 4° C. For the tests, in each case a single colony of the corresponding microorganisms was inoculated in 40 ml of TSB medium and incubated overnight at 37° C. while being shaken (250 rpm). To quantify the microorganisms, the optical density of the overnight cultures was measured at 620 nm (OD620), and the colony number was determined by flattening out corresponding dilution stages.
# (§3) To be able to assess the dose-dependent range of action of an antimicrobial or antibiotic protein, a liquid culture testing system was used (cf. Ganz et al., 1985). […]
# (§4) These batches were incubated in a 96-hole plate (Becton Dickinson, Heidelberg) for 3 hours at 37° C. while being shaken lightly (150 rpm). […] After 24 to 36 hours of growth, the colonies were counted out.
# [4] = system: E. coli; assay: Liquid culture test, LD90 by counting colony-forming units, E. coli; assay type: cell-based, Escherichia coli; settings: 3 hours at 37° C., 5·10^4 KBE/ml, 10 mmol sodium phosphate buffer pH 7.4 with 1% TSB
# Description: (§5) To be able to assess the dose-dependent range of action of an antimicrobial or antibiotic protein, a liquid culture testing system was used (cf. Ganz et al., 1985).
# (§6) About 10 μl of a 1×10^7/ml dilution of the corresponding microorganisms in sodium-phosphate buffer (cf. 3.1) was added to 80 μl of sodium-phosphate buffer together with 1.25% TSB medium (v/v). 10 μl of 0.01% acetic acid was added with the corresponding concentrations of the antimicrobial or antibiotic protein (100 μg/ml, 50 μg/ml, 25 μg/ml, 12.5 μg/ml, and 6.25 μg/ml).
# (§7) These batches were incubated in a 96-hole plate (Becton Dickinson, Heidelberg) for 3 hours at 37° C. while being shaken lightly (150 rpm). After the incubation time, tenfold dilution series were made from 50 μl of each of the batches with sodium-phosphate buffer and flattened out (100 μl) in each case in 3 parallel lines on TSB-agar plates. After 24 to 36 hours of growth, the colonies were counted out.
# SAP-3 was incubated at the indicated concentrations at 37° C. for 3 hours with 5·10^4 KBE/ml (KBE=colony-forming units) of E. coli and Staphylococcus aureus in 100 μl of 10 mmol of sodium phosphate buffer (pH=7.4) together with 1% TSB (TSB=trypticase-soy broth). The antimicrobial activity of SAP-3 was determined by counting out the KBE on the subsequent day. 100 μl of the respective batches in tenfold dilution stages was flattened out on TSB plates in advance. […]
# [5] = system: Staph aureus; assay: MIC, antimicrobial activity against Staph aureus; assay type: cell-based, Staphylococcus aureus
# Description: as §1, §2, §3, §4
# [6] = system: Staphylococcus aureus; assay: Liquid culture test, LD90 by counting colony-forming units, Staphylococcus aureus; assay type: cell-based; settings: 3 hours at 37° C., 10 mmol sodium phosphate buffer pH 7.4 with 1% TSB
# Description: as §5, §6, §4
# SAP-3 was incubated at the indicated concentrations at 37° C. for 3 hours with 5·10^4 KBE/ml (KBE=colony-forming units) of E. coli and Staphylococcus aureus in 100 μl of 10 mmol of sodium phosphate buffer (pH=7.4) together with 1% TSB (TSB=trypticase-soy broth). The antimicrobial activity of SAP-3 was determined by counting out the KBE on the subsequent day. […]
# SAP-2 was incubated at the indicated concentrations at 37° C. for 3 hours with 1·10^5 KBE/ml of the respective microorganisms in 100 μl of 10 mmol of sodium phosphate buffer (pH=7.4) together with 1% TSB. The antimicrobial activity of SAP-2 was determined by counting out the KBE on the subsequent day. […]
# [7] = system: Candida albicans; assay: Liquid culture test, LD90 by counting colony-forming units, Candida albicans; assay type: cell-based; settings: 3 hours at 37° C., 1·10^5 KBE/ml, 10 mmol sodium phosphate buffer pH 7.4 with 1% TSB
# Description: as §5, §6, §7
# (§8) SAP-2 was incubated at the indicated concentrations at 37° C. for 3 hours with 1·10^5 KBE/ml of the respective microorganisms in 100 μl of 10 mmol of sodium phosphate buffer (pH=7.4) together with 1% TSB. The antimicrobial activity of SAP-2 was determined by counting out the KBE on the subsequent day. 100 μl of the respective batches was flattened out in tenfold dilution stages on TSB plates in advance. Then, the plates were incubated at 37° C. overnight.
# [8] = system: propionibacterium acnes; assay: Liquid culture test, LD90 by counting colony-forming units, propionibacterium acnes; assay type: cell-based; settings: 3 hours at 37° C., 1·10^5 KBE/ml, 10 mmol sodium phosphate buffer pH 7.4 with 1% TSB
# Description: as §5, §6, §7, §8
# [9] = system: Pseudomonas aeruginosa; assay: Liquid culture test, LD90 by counting colony-forming units, Pseudomonas aeruginosa; assay type: cell-based; settings: 3 hours at 37° C., 1·10^5 KBE/ml, 10 mmol sodium phosphate buffer pH 7.4 with 1% TSB
# Description: as §5, §6, §7, §8
# [10] = system: human RNA; assay: RNase activity; assay type: biochemical; settings: 1.2 μg of SAP-2, one hour at 37° C.
# Description: RNase activity: 1.2 μg of SAP-2 digested about 5 μg of human RNA in one hour at 37° C.
# [11] = system: E. coli; settings: cited from earlier work
# [12] = system: Pseudomonas aeruginosa; settings: cited from earlier work
# [13] = system: Candida albicans; settings: cited from earlier work
# [14] = system: Klebsiella pneumoniae; settings: cited from earlier work
# [15] = system: Staphylococcus aureus; settings: cited from earlier work
molecule,measurement,setting,value
"hBD-2: second β-defensin isolated in humans, 41 amino acids, inducible peptide (GIGDPVTCLKSGAICHPVFCPRRYKQIGTCGLPGTKCCKKP; ends and bridges not checked; cysteine pairing not given here; UniProt O15263 24-64, looked up)",LD90 against gram-negative bacteria,[1],10 µg/mL
same,LD90 against gram-positive bacteria,[2],exceeds 100 μg/ml
"SAP-3: human antibiotic protein of about 6 kDa isolated from lesional psoriasis scales, SEQ ID NO: 2, to be renamed hBD-3 (GIINTLQKYYCRVRGGRCAVLSCLPKEEQIGKCSTRGRKCCRRKK; listed as Homo sapiens)","MIC, antimicrobial activity against E. coli",[3],<20 µg/mL
same,LD90 for E. coli,[4],2.5 to 5 µg/mL
same,"MIC, antimicrobial activity against Staph aureus",[5],<100 µg/mL
same,LD90 for Staphylococcus aureus,[6]; 5·10^4 KBE/ml,2.5 to 5 µg/mL
B1,LD90 for Candida albicans,[7],15 to 30 µg/mL
same,"MIC, antimicrobial activity against E. coli",[3],< 50 µg/mL
same,LD90 for propionibacterium acnes,[8],4 to 7.5 µg/mL
same,"MIC, antimicrobial activity against Staph aureus",[5],< 100 µg/mL
same,LD90 for Staphylococcus aureus,[6]; 1·10^5 KBE/ml,7.5 to 15 µg/mL
same,LD90 for Pseudomonas aeruginosa,[9],7.5 to 15 µg/mL
same,RNase activity: human RNA digested,[10],about 5 μg
B2,minimum inhibition concentration against E. coli,[11],12 to 50 µg/mL
same,minimum inhibition concentration against Pseudomonas aeruginosa,[12],12 to 50 µg/mL
same,action on Candida albicans,[13],destroyed
same,minimum inhibition concentration against Klebsiella pneumoniae,[14],12 to 50 µg/mL
same,minimum inhibition concentration against Staphylococcus aureus,[15],12 to 50 µg/mL
